Measurements reported in paper PMC3937055.

Target: caveolin, endogenous in mouse hippocampal primary neurons (mouse (endogenous in hippocampal primary neurons)) (UniProt P49817)
Experiment: co-IP; competition: synthetic Tat peptides incubated with living hippocampal primary neurons for 45 min before lysis; anti-caveolin immunoprecipitate blotted for mGlu1 receptor, band intensity normalised to control (n=3)

Sequence of UniProt P49817 (P49817 whole entry): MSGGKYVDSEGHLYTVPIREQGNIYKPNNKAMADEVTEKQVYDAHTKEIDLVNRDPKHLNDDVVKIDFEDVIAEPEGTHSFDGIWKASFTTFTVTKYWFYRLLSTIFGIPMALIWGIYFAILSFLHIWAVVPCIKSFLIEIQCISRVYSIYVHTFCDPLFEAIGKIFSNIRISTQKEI

Tat-blocking peptide (Tat peptide fused with caveolin binding site of mGlu1α receptor)
mGlu1α receptor co-precipitated with caveolin in the presence of the peptide, % of control: 73.3 % of control
